Measurements reported in publication PMC8984176, “Tuftsin: A Natural Molecule Against SARS-CoV-2 Infection” (Frontiers in Molecular Biosciences, 2022).

How the values were obtained:
[1] = biological target: recombinant human ACE2 protein (human) (UniProt Q9BYF1); test: SPR; Biacore T200; ACE2 or NRP1 amine-coupled on a CM5 chip (about 10,000 RU); tuftsin flowed at gradient concentrations; 25°C, 30 µl/min; 1×PBS, 0.05% Tween 20, 5% dimethyl sulfoxide, pH 7.4; steady state affinity model
[2] = biological target: recombinant human NRP1 protein (human) (UniProt O14786); test: as above

Chain of recombinant human ACE2 protein (human) (Q9BYF1 18-740): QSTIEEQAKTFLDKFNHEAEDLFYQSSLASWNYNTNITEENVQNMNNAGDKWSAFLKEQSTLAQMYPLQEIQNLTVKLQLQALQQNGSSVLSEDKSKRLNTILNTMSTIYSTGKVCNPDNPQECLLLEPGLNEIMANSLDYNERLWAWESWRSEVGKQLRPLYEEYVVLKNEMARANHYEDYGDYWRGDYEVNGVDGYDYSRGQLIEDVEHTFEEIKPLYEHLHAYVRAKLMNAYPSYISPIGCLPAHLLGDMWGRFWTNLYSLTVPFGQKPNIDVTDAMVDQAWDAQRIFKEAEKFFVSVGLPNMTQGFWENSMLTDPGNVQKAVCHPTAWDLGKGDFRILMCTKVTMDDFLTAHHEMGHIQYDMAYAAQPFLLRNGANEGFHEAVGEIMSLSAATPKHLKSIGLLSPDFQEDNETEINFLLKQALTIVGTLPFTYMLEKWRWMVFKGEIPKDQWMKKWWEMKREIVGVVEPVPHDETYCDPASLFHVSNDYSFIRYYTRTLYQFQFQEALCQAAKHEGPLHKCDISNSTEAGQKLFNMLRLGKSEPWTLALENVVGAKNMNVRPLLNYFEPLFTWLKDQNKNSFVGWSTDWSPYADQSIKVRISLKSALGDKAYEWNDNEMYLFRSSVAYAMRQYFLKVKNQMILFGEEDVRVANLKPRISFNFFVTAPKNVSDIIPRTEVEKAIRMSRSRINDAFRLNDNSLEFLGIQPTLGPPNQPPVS

## tuftsin (peptide)
[1]
  Kd: 460 µM
[2]
  Kd: 10.7 µM
